Tests used:
[1] = biological target: Human neutrophil elastase (human, UniProt P08246); experiment: enzyme inhibition; 30 min preincubation at 37 C; Suc-AAPV-AMC hydrolysis by fluorescence; Ki* corrected for substrate
Experimental: (§1) The BTL.009 concentration was determined by amino acid analysis. The concentration of human neutrophil elastase, cathepsin G, and proteinase 3 were based on the manufacturer's specifications. […] Hydrolysis of AMC-conjugated peptides was monitored on a Hitachi model F4500 fluorometer (excitation=370 nm, emission=432 nm) over the first 2 minutes of the reaction. Ki* values were determined from plots of fractional rate versus inhibitor concentration, which were fit by nonlinear regression analysis (Enzifitter™ by Bio soft, Cambridge UK) as described (44). Ki values were obtained by correction for the effect of substrate as described (44).

[2] = biological target: T1, Human neutrophil proteinase 3 (human, UniProt P24158); experiment: as above
T1 sequence: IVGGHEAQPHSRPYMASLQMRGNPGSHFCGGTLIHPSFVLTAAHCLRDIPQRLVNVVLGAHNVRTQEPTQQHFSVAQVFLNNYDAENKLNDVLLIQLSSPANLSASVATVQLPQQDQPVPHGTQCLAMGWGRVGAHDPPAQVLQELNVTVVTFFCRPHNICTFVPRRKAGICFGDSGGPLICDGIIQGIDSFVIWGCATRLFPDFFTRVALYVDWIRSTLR
Experimental: as §1

[3] = biological target: T2, Human neutrophil cathepsin G (human, UniProt P08311); experiment: enzyme inhibition; 30 min preincubation at 37 C; Suc-AAPF-AMC hydrolysis by fluorescence; Ki* corrected for substrate
T2 sequence: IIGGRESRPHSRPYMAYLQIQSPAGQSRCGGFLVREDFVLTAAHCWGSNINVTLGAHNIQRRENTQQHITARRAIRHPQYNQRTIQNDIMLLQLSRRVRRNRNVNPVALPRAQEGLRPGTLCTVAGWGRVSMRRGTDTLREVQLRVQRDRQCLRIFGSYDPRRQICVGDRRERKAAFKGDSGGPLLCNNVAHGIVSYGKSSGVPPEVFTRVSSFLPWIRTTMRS
Experimental: as §1

B1: BTL.009 (other)
chain: KQDVCEMPKETGPCLAYFLHWWYDKKDNTCSMFVYGGCQGNNNNFQSKANCLNTC
[1]
  Ki: 8 nM
[2]
  Ki: 190 nM
[3]
  Ki: 1800 nM

From patent US6294648, “Protein having proteinase inhibitor activity” (Bayer Corporation, dated 2001)
